± gives the uncertainty stated by the source.
B1: Zinc finger MYM-type protein 3, residues 589 to 668; numbered along this chain, Q14202 (parent)
chain: LSCHYCHSLFSGKPEVLDWQDQVFQFCCRDCCEDFKRLRGVVSQCEHCRQEKLLHEKLRFSGVEKSFCSEGCVLLYKQDF

Variants of: B1
Experiment: abundance fitness (aPCA) (normalised: wild type 0, dead -1); higher = more abundant; growth selection in yeast, the domain comes from the species named
Conditions: Homo sapiens

Abundance fitness of substitutions, site by site:
V23: C 0.236 ± 0.046 | D -0.085 ± 0.05 | E 0.227 ± 0.049 | G -0.003 ± 0.042 | H 0.111 ± 0.051 | K 0.268 ± 0.055 | L 0.155 ± 0.04 | M 0.338 ± 0.047 | N 0.169 ± 0.056 | Q 0.246 ± 0.044 | R 0.294 ± 0.039 | S 0.287 ± 0.047 | T 0.175 ± 0.047 | W 0.134 ± 0.044 | Y -0.164 ± 0.073
F24: C 0.112 ± 0.057 | D -0.376 ± 0.064 | E -0.143 ± 0.045 | G -0.136 ± 0.042 | I 0.072 ± 0.078 | K 0.084 ± 0.045 | L 0.203 ± 0.041 | N 0.001 ± 0.083 | P -0.383 ± 0.068 | Q -0.038 ± 0.046 | T -0.033 ± 0.048 | V 0.133 ± 0.041 | W 0.051 ± 0.045
Q25: A -0.044 ± 0.04 | C -0.081 ± 0.062 | D 0.085 ± 0.056 | E 0.226 ± 0.043 | F -0.035 ± 0.073 | G 0.088 ± 0.039 | H 0.122 ± 0.064 | I -0.084 ± 0.067 | K 0.113 ± 0.05 | L -0.163 ± 0.046 | M 0.198 ± 0.059 | S 0.016 ± 0.044 | V 0.032 ± 0.041 | W 0.033 ± 0.046 | Y 0.025 ± 0.059
F26: A -0.49 ± 0.053 | C -0.444 ± 0.078 | D -0.657 ± 0.11 | E -0.506 ± 0.057 | G -0.603 ± 0.058 | H -0.666 ± 0.15 | I -0.731 ± 0.14 | K -0.524 ± 0.075 | M 0.134 ± 0.051 | N -0.391 ± 0.1 | P -0.664 ± 0.071 | Q -0.482 ± 0.069 | R -0.603 ± 0.049 | T -0.489 ± 0.062 | V -0.515 ± 0.048 | W -0.522 ± 0.075 | Y -0.409 ± 0.1
C27: A -0.673 ± 0.055 | D -0.352 ± 0.078 | E -0.721 ± 0.062 | F -0.607 ± 0.17 | G -0.572 ± 0.048 | H -0.517 ± 0.11 | I -0.752 ± 0.21 | K -0.882 ± 0.096 | L -0.89 ± 0.08 | M -0.472 ± 0.07 | N -0.706 ± 0.099 | P -0.483 ± 0.062 | Q -0.653 ± 0.075 | R -0.756 ± 0.055 | S -0.892 ± 0.086 | V -0.692 ± 0.06 | W -0.859 ± 0.072 | Y -0.798 ± 0.32
C28: A 0.017 ± 0.041 | D 0.041 ± 0.062 | E -0.228 ± 0.063 | F -0.83 ± 0.12 | G 0.08 ± 0.038 | H -0.081 ± 0.11 | I -0.703 ± 0.13 | K 0.105 ± 0.063 | L -0.758 ± 0.059 | M 0.129 ± 0.046 | N -0.16 ± 0.12 | P -0.607 ± 0.076 | Q 0.087 ± 0.046 | R 0.074 ± 0.039 | S -0.021 ± 0.044 | T 0.11 ± 0.047 | V -0.321 ± 0.043 | W -0.973 ± 0.094 | Y -0.557 ± 0.15
R29: A 0.069 ± 0.042 | C 0.08 ± 0.05 | D 0.082 ± 0.053 | E 0.013 ± 0.045 | F 0.095 ± 0.056 | G 0.008 ± 0.04 | H 0.275 ± 0.058 | I 0.014 ± 0.055 | K 0.002 ± 0.046 | M 0.235 ± 0.05 | N 0.206 ± 0.075 | P 0.068 ± 0.056 | S 0.009 ± 0.044 | T -0.002 ± 0.046 | W -0.049 ± 0.047 | Y 0.26 ± 0.069
D30: A 0.027 ± 0.043 | C 0.008 ± 0.053 | E 0.014 ± 0.046 | F -0.263 ± 0.076 | G 0.057 ± 0.038 | I -0.243 ± 0.088 | K 0.104 ± 0.062 | L -0.012 ± 0.041 | M 0.3 ± 0.045 | N -0.069 ± 0.1 | Q -0.036 ± 0.054 | S 0.055 ± 0.043 | T 0.131 ± 0.044 | V 0.109 ± 0.04 | W -0.227 ± 0.05 | Y -0.164 ± 0.091
C31: A -0.655 ± 0.072 | D -0.545 ± 0.12 | E -0.573 ± 0.096 | G -0.8 ± 0.078 | I -1.02 ± 0.26 | M -0.778 ± 0.14 | P -1.02 ± 0.18 | Q -0.668 ± 0.1 | R -0.901 ± 0.08 | S -0.986 ± 0.13 | T -1.02 ± 0.15 | V -1.14 ± 0.15 | W -1.26 ± 0.21
C32: A -0.026 ± 0.042 | D -0.521 ± 0.11 | E -0.203 ± 0.055 | F -0.237 ± 0.09 | G -0.253 ± 0.042 | I -0.113 ± 0.08 | K 0.157 ± 0.044 | L -0.027 ± 0.042 | M 0.214 ± 0.047 | N -0.239 ± 0.14 | P -0.574 ± 0.097 | Q -0.08 ± 0.055 | R -0.176 ± 0.04 | S -0.227 ± 0.047 | T -0.108 ± 0.047 | V 0.038 ± 0.041 | W -0.403 ± 0.051 | Y 0.067 ± 0.059
E33: A -0.037 ± 0.04 | C -0.151 ± 0.054 | D 0.072 ± 0.056 | F -0.103 ± 0.11 | G -0.157 ± 0.04 | H 0.124 ± 0.064 | K -0.353 ± 0.066
